From US20230080224A1 (AGENCY FOR SCIENCE TECHNOLOGY AND RESEARCH, published 2023) come the findings set out here.

The target of assay [1] is T1, human ALPPL2 (recombinant protein) (human, UniProt P10696 20-503, limits assumed).
T1 construct: biotinylated where captured on streptavidin
Briefly: screen of rabbit B-cell clones by ELISA and FACS. An excerpt:
(§1) Specific clones were screened and identified by ELISA and high throughput flow cytometry (FIG. 3). Rabbit kidney cells were transfected with either truncated (for ELISA screen) or full-length (for FACS screen) ALPI and ALPPL2.

The target of assay [2] is T2, ALPI (screening and SPR/ELISA protein) (UniProt P09923 20-503, limits assumed).
T2 sequence (looked up): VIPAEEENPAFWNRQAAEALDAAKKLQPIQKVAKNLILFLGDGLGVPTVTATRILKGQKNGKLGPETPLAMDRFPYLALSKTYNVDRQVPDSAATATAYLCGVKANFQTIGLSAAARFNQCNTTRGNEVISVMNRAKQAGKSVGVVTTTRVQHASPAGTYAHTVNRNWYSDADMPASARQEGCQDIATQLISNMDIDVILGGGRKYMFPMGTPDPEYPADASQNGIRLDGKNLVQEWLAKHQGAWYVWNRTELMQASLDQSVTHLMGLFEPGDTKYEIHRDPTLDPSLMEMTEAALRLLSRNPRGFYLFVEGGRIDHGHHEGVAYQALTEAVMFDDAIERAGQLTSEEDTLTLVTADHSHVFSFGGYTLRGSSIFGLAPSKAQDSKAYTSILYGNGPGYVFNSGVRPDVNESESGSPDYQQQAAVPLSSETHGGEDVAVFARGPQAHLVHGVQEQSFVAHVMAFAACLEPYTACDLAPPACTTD
Briefly: screen of rabbit B-cell clones by ELISA and FACS.
Excerpt: as §1
In general terms: An ELISA detects its analyte on a solid surface through an enzyme-linked reagent.

Assay [3] deals with T3, human ALPPL2 (recombinant protein) (human, UniProt P10696 20-503).
T3 chain: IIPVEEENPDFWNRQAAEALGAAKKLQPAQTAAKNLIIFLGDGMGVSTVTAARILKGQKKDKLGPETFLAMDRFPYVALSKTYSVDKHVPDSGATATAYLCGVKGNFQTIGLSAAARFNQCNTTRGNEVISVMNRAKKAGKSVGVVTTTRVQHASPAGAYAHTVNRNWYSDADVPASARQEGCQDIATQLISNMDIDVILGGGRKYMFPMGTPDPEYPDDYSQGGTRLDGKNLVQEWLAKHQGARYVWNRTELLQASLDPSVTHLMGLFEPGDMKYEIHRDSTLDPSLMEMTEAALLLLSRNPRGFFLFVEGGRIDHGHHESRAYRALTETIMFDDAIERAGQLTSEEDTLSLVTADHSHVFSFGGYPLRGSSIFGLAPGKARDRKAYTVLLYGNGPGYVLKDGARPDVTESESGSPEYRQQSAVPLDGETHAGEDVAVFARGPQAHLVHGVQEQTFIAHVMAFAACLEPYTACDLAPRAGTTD
Briefly: BLI; single concentration.

B1: AB1C34 (antibody, V domains shown)
VH: QSLEESGGDLVKPGASLTLTCTASGFDFSSNGMCWVRQAPGKGLEWIACIYVDSSDSTYYASWVNGRFTISKTSSTTVTLQMTSLTAADTATYFCARGYGYVGSAMDLWGQGTLVTVSS
VL: NIVMTQTPSPVSGAVGGTVTIKCQASQSISNELAWFQQKPGQRPKLLIYGASTLESGVPSRFSGSGSGTEFTLTISDLECADAATYYCQSAYYSSSSSYANTFGGGTEVVVK
notes: Rabbit antibody cloned from a single B cell
With B1, the binding result in assay [1] is “binds”; in assay [2], “no binding”.

B2: AB1C18 (antibody, V domains shown)
VH: QSLEESGGDLVKPGASLTLTCTASGFSFSSYWTCWVRQAPGKGLEWLGCTDGGSSGDTYYATWAKGRVAISKTSSTTVTLQVTSLTAADTATYFCARNLITWDLWGPGTLVTVSS
VL: IVMTQTPSSKSVPVGDTVTINCQASESVYNNNQLSWFQQKPGQPPKLLIYWASKLASGVPSRFKGSGSGTQFTLTISDVVCDDAATYYCAGYKSSITDGNAFGGGTEVVVK
notes: as for B1
Broadly, the Kd is the concentration at which binding is half-saturated. Turning to B2, the binding result in assay [1] is on record as “binds”; in assay [2], “no binding”. The Kd in assay [3] worked out at 1.4 nM.

B3: AB1C35 (antibody, V domains shown)
VH: QEQLKESGGDLVKPGASLTLTCTASGFTLSTYWVCWVRQAPGKGLEWIGCIDTVSSGDTYFASWAKGRFTGSKTSSTTVTLQMTSLTAADTATYFCARRTGSRWTLWGPGTLVTVSS
VL: QVLTQTPSSVSAGVGGTVTINCQASESVYNNNYLSWYQQKPGQPPKLLIYQASTLASGVPSRFKGSGSGTQFTLTISDVQCDDAATYYCLGAFVSNGWYFAFGGGTEVVVK
notes: as for B1
Turning to B3, the results for the binding result in assay [1] and in assay [2] were “binds” and “no binding”, respectively. In addition, the Kd in assay [3] is 4.1 nM.

B4: AB1C17 (antibody, V domains shown)
VH: QEQLKESGGDLVKPGASLTLTCTASGFTLSTYWVCWVRQAPGKGLEWIGCIDTVSSGDTYFASWAKGRFTGSKTSSTTVTLQMTSLTAADTATYFCARRTGSGWTLWGPGTLVTVSS
VL: LVMTQTPSPVSAAVGGTVTISCQSSQSVYNNNYLAWFQQNPGQPPKLLIYWASKLASGVPSRFKGSGSGTQFTLTISDVQCDDAATYYCLGAYVSNGWYFAFGGGTEVVVK
notes: as for B1
For B4, the binding result in assay [1] is recorded as “binds”; in assay [2], “no binding”.

B5: AB1C28 (antibody, V domains shown)
VH: QEQLKESGGDLVKPGASLTLTCTASGFTLSTYWVCWVRQAPGKGLEWIGCIDTVSSGDTYFASWAKGRFTGSKTSSTTVTLQMTSLTAADTATYFCARRTGSGWTLWGPGTLVTVSS
VL: LVMTQTPSPVSAAVGGTVTISCQSSQSVYNNNYLAWFQQNPGQPPKLLIYWASKLASGVPSRFKGSGSGTQFTLTISDVQCDDAATYYCLGAYVSNGWYFAFGGGIEVVVK
notes: as for B1
In the case of B5, the binding result in assay [1] is on record as “binds”; in assay [2], “no binding”.

B6: AB2C103 (antibody, V domains shown)
VH: QSLEESGGDLVKPGASLTLTCTASGFDFSSYYWICWVRQAPGKGLEWIACIYGGSSGSTYYATWAKGRFTISETSSTTVTLQMTSLTAADMATYFCARSLYTWRYADYAASTLNLWGPGTLVTVSS
VL: AVLTQTPSPVSAAVGGTVSISCQSSQSVYNVNLLAWYQQKPGQPPKLLIYETSKLESGVPSRFSGSGSGTQFTLTISDVQCDDAATYYCAGGYSSSKDNSFGGGTEVVVK
notes: as for B1
Regarding B6, the binding result is on record as “binds” in assay [1] and “no binding” in assay [2].

B7: AB1C15 (antibody, V domains shown)
VH: QSLEESGGDLVKPGASLTLTCTASGFSFSSSYYMCWVRQAPGKGLEWIACIYTTYGGTWYASWAKGRFTISKTSSTTVTLQMTSLTDADTATYFCARSSISDVTYFNLWGPGTLVTVSS
VL: DIVMTQTPASVEAAVGGTVTIKCQASQSISNYLAWYQQKPGQPPELLIYRASTLESGVPSRFKGSGSGTGFTLTISDLECADAATYYCQSYYDNNNYAFGGGTEVVVK
notes: as for B1
With B7, the binding result is “binds” in assay [1] and “no binding” in assay [2]. Also, in assay [3], the dissociation constant Kd is 0.6 nM.

B8: AB2C128 (antibody, V domains shown)
VH: QSLEESGGDLVKPGASLTLTCTASGFSFSSSYWIYWVRQAPGKGLEWIACIYTASRGSIYYASWTKGRFTISKTSSTTVTLQMTSLTAADTATYFCARGPDYTYGYIGDALTRLDLWGQGTLVTVSS
VL: AVLTQTPSPVSAAVGGTVSISCQSSQSVYDNNWLAWYQQKAGQPPKLLIYAASTLSSGVPSRFKGSGSGIEFTLTISDVQCDDAATYYCAGGYSSTSDIEDNTFGGGTEVVVK
notes: as for B1
In the case of B8, the binding result in assay [1] is recorded as “binds”; in assay [2] it was “no binding”.

B9: AB2C135 (antibody, V domains shown)
VH: QSLEESGGDLVKPGASLTLTCTASGFSFSSSYWICWVRQAPGKGLEWIACIYTASRDSIYYASWAKGRFTISKTSSTTVTLQMTSLTAADTATYFCARGPYYSYAYIGDALTRLDLWGQGTLVTVSS
VL: AVLTQTPSPVSAAVGGTVSISCQSSQSVYDNNWLAWYQQKPGQPPKLLIYEASKLASGVPSRFKGSGSGTQFTLTISGVQCDDASTYYCAGGYSSSSDIEDNTFGGGTEVVVK
notes: as for B1
With B9, the values for the binding result in assay [1] and in assay [2] were “binds” and “no binding”, respectively.

B10: AB1C23 (antibody, V domains shown)
VH: QSLEESGGDLVKPGASLTLTCTASGFSFSSTYYMCWVRQAPGKGLEWIACIYTGSTGSTYYASWAKGRFTGSKTSSTTVTLQMTSLTAADTATYFCARGDYTYAYAGGAHVTNYYFDLWGPGTLVTVSS
VL: LVMTQTPSSVSAAVGGTVTINCQASQNIYSNLAWYQQKPGQRPKLLIFGASNLESGVPSRFKGSGSGTEFTLTISDLECDDAATYYCQTADYSSSTDWGAFGGGTEVVVK
notes: as for B1
As to B10, the binding result in assay [1] is on record as “binds”; in assay [2] it was “no binding”.

B11: AB1C14 (antibody, V domains shown)
VH: QSLEESGGDLVKPGASLTLTCTASGFSFSSNYWICWVRQAPGKGLEWIACIATGSSGSTYYASWAKGRFTISKTSSTTVTLQMTSLTAADTATYFCARGEYTYGYVEYAIVTQYYFDLWGPGTLVTVSS
VL: FEMTQTPSSVSAAVGGTVTINCQASQNIYSNLAWYQQKPGQRPKLLIYGASNLESGVPSRFKGSGSGTEYTLTISDLECDDAATYYCQSADYIGSAYNAFGGGTEVVVK
notes: as for B1
Turning to B11, the binding result in assay [1] was “binds”; in assay [2], “no binding”.

B12: AB1C32 (antibody, V domains shown)
VH: QEQLEESGGDLVKPGGTLTLTCKASGIDFSSDYYMCWVRQAPGKGLEWIACIYTGSSDDTYYASWAKGRFTISKTSSPTVALQMTSLTAADTATYFCARGGYGGKDLWGPGTLVTVSS
VL: VVMTQTPASVEAAVGGTVTIKCQASQSIGSLLAWYQQKPGQPPNLLIYWASTLASGVPSRFKGSGSGTEFTLTISDLECDDAATYYCQCTYGSSGSSSYLNAFGGGTEVVVK
notes: as for B1
For the molecule B12, the binding result in assay [1] was “binds”; in assay [2], “no binding”.

B13: AB1C11 (antibody, V domains shown)
VH: QSLEESGGDLVKPGASLTLTCKASGFTISSIWICWVRQAPGKGLEWIACIYAGSDGGSYYASWARGRFTISKTSSTTVTLQMTSLTAADTATYFCARASNSWQYGYAGYGNYKDYFNLWGPGTLVTVSS
VL: FELTQTPSSVEAVVGGTVTINCQASESISNLLAWYQQKSGQPPKVLIYKASALPSGVSSRFKGSGSGTEFTLTISDLECADAATYYCQSYYGSSDTGNTFGGGTEVVVK
notes: as for B1
For the molecule B13, the binding result in assay [1] was “binds”; in assay [2], “no binding”.

B14: AB1C13 (antibody, V domains shown)
VH: QEQLEESGGDLVKPEGSLTLTCTASGFSFSWICWVRQAPGKGLEWIACIYAGSSAKTYYASWAKGRFTISKASSTTVTLQMTSLTAADTATYFCARASNYYRYGVAGYADYTGYFNLWGPGTLVTVSS
VL: FELTQTPASVEAAVGGTVTIKCQASQSISSWLAWYHQKPGQRPKLLIYGTSTLASGVPSRFKGSGSGTEFTLTISDLECADAATYYCQNYGGSSSGDAFGGGTEVVVK
notes: as for B1
For the molecule B14, the binding result in assay [2] is recorded as “no binding”.

B15: AB1C21 (antibody, V domains shown)
VH: QQQLVESGGGLVKPGASLTLTCKASGFSFSSGYDMCWVRQAPGKGLEWIACIYTGDGSTYYASWARGRFTISKTSSTTVTLQMTSLTAADTATYFCAREDVSSGDYTFNLWGPGTLVTVSS
VL: YDMTQTPASVEVTVGGTVTIKCQASEDIYSGLAWYQQKPGQRPKLLIYKASNLASGVPSRFSGSGSGTEFTLTISGVECADAATYYCQQGVTYSNVDNTFGGGTEVVVK
notes: as for B1
In the case of B15, the binding result is “binds” in assay [1] and “no binding” in assay [2]. The Kd in assay [3] worked out at 1.4 nM.
